Experimental findings from IntAct's records for PubMed 31515488 are described below.

Sequences and labels used below:
B1: Serine/threonine-protein kinase PAK 5 (Homo sapiens), Q9P286 (parent)
chain: MFGKKKKKIEISGPSNFEHRVHTGFDPQEQKFTGLPQQWHSLLADTANRPKPMVDPSCITPIQLAPMKTIVRGNKPCKETSINGLLEDFDNISVTRSNSLRKESPPTPDQGASSHGPGHAEENGFITFSQYSSESDTTADYTTEKYREKSLYGDDLDPYYRGSHAAKQNGHVMKMKHGEAYYSEVKPLKSDFARFSADYHSHLDSLSKPSEYSDLKWEYQRASSSSPLDYSFQFTPSRTAGTSGCSKESLAYSESEWGPSLDDYDRRPKSSYLNQTSPQPTMRQRSRSGSGLQEPMMPFGASAFKTHPQGHSYNSYTYPRLSEPTMCIPKVDYDRAQMVLSPPLSGSDTYPRGPAKLPQSQSKSGYSSSSHQYPSGYHKATLYHHPSLQSSSQYISTASYLSSLSLSSSTYPPPSWGSSSDQQPSRVSHEQFRAALQLVVSPGDPREYLANFIKIGEGSTGIVCIATEKHTGKQVAVKKMDLRKQQRRELLFNEVVIMRDYHHDNVVDMYSSYLVGDELWVVMEFLEGGALTDIVTHTRMNEEQIATVCLSVLRALSYLHNQGVIHRDIKSDSILLTSDGRIKLSDFGFCAQVSKEVPKRKSLVGTPYWMAPEVISRLPYGTEVDIWSLGIMVIEMIDGEPPYFNEPPLQAMRRIRDSLPPRVKDLHKVSSVLRGFLDLMLVREPSQRATAQELLGHPFLKLAGPPSCIVPLMRQYRHH
partner: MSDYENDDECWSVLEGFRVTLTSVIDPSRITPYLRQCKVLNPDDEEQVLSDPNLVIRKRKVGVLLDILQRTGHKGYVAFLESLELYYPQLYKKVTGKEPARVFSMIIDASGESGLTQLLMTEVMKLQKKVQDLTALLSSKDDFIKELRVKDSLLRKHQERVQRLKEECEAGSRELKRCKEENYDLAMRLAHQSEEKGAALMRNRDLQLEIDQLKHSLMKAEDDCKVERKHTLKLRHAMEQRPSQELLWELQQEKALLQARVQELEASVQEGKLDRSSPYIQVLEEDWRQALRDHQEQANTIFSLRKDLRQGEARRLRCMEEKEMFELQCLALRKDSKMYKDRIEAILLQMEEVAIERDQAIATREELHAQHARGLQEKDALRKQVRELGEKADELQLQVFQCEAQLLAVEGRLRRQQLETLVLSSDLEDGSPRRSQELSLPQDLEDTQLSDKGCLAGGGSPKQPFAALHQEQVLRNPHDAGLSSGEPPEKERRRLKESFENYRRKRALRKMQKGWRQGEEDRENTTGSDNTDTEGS
B2: Peroxisomal biogenesis factor 3 (Homo sapiens), P56589 (parent)
chain: MLRSVWNFLKRHKKKCIFLGTVLGGVYILGKYGQKKIREIQEREAAEYIAQARRQYHFESNQRTCNMTVLSMLPTLREALMQQLNSESLTALLKNRPSNKLEIWEDLKIISFTRSTVAVYSTCMLVVLLRVQLNIIGGYIYLDNAAVGKNGTTILAPPDVQQQYLSSIQHLLGDGLTELITVIKQAVQKVLGSVSLKHSLSLLDLEQKLKEIRNLVEQHKSSSWINKDGSKPLLCHYMMPDEETPLAVQACGLSPRDITTIKLLNETRDMLESPDFSTVLNTCLNRGFSRLLDNMAEFFRPTEQDLQHGNSMNSLSSVSLPLAKIIPIVNGQIHSVCSETPSHFVQDLLTMEQVKDFAANVYEAFSTPQQLEK
partner: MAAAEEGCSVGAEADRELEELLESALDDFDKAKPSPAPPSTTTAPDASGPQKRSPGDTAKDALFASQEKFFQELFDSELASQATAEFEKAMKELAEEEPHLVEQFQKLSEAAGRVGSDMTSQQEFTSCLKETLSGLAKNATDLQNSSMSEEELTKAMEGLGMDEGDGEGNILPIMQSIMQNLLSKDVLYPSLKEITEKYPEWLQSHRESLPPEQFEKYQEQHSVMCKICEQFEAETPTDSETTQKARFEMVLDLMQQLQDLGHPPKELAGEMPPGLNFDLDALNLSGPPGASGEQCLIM
B3: Stabilizer of axonemal microtubules 1 (Homo sapiens), Q8IYX7 (parent)
chain: MKTKCICELCSCGRHHCPHLPTKIYDKTEKPCLLSEYTENYPFYHSYLPRESFKPRREYQKGPIPMEGLTTSRRDFGPHKVAPVKVHQYDQFVPSEENMDLLTTYKKDYNPYPVCRVDPIKPRDSKYPCSDKMECLPTYKADYLPWNQPRREPLRLEHKYQPASVRFDNRTTHQDDYPIKGLVKTISCKPLAMPKLCNIPLEDVTNYKMSYVAHPVEKRFVHEAEKFRPCEIPFESLTTQKQSYRGLMGEPAKSLKPLARPPGLDMPFCNTTEFRDKYQAWPMPRMFSKAPITYVPPEDRMDLLTTVQAHYTCPKGAPAQSCRPALQIKKCGRFEGSSTTKDDYKQWSSMRTEPVKPVPQLDLPTEPLDCLTTTRAHYVPHLPINTKSCKPHWSGPRGNVPVESQTTYTISFTPKEMGRCLASYPEPPGYTFEEVDALGHRIYKPVSQAGSQQSSHLSVDDSENPNQRELEVLA
B4: ADP-ribosylation factor-like protein 2-binding protein (Homo sapiens), Q9Y2Y0 (parent)
chain: MDALEGESFALSFSSASDAEFDAVVGYLEDIIMDDEFQLLQRNFMDKYYLEFEDTEENKLIYTPIFNEYISLVEKYIEEQLLQRIPEFNMAAFTTTLQHHKDEVAGDIFDMLLTFTDFLAFKEMFLDYRAEKEGRGLDLSSGLVVTSLCKSSSLPASQNNLRH
B5: Calcium-binding and coiled-coil domain-containing protein 2 (Homo sapiens), Q13137 (parent)
chain: MEETIKDPPTSAVLLDHCHFSQVIFNSVEKFYIPGGDVTCHYTFTQHFIPRRKDWIGIFRVGWKTTREYYTFMWVTLPIDLNNKSAKQQEVQFKAYYLPKDDEYYQFCYVDEDGVVRGASIPFQFRPENEEDILVVTTQGEVEEIEQHNKELCKENQELKDSCISLQKQNSDMQAELQKKQEELETLQSINKKLELKVKEQKDYWETELLQLKEQNQKMSSENEKMGIRVDQLQAQLSTQEKEMEKLVQGDQDKTEQLEQLKKENDHLFLSLTEQRKDQKKLEQTVEQMKQNETTAMKKQQELMDENFDLSKRLSENEIICNALQRQKERLEGENDLLKRENSRLLSYMGLDFNSLPYQVPTSDEGGARQNPGLAYGNPYSGIQESSSPSPLSIKKCPICKADDICDHTLEQQQMQPLCFNCPICDKIFPATEKQIFEDHVFCHSL
partner: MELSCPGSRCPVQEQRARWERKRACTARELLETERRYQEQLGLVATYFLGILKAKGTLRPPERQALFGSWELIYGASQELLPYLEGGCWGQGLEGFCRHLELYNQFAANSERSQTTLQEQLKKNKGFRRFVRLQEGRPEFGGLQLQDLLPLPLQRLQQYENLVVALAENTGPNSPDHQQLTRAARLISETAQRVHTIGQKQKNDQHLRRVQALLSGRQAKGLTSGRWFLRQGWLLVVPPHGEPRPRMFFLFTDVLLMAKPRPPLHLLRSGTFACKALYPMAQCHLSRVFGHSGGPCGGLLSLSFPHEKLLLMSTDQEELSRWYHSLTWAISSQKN
B6: Ligand of Numb protein X 2 (Homo sapiens), Q8N448 (parent)
chain: MGTTSDEMVSVEQTSSSSLNPLCFECGQQHWTRENHLYNYQNEVDDDLVCHICLQPLLQPLDTPCGHTFCYKCLRNFLQEKDFCPLDRKRLHFKLCKKSSILVHKLLDKLLVLCPFSSVCKDVMQRCDLEAHLKNRCPGASHRRVALERRKTSRTQAEIENENGPTLLDPAGTLSPEADCLGTGAVPVERHLTSASLSTWSEEPGLDNPAFEESAGADTTQQPLSLPEGEITTIEIHRSNPYIQLGISIVGGNETPLINIVIQEVYRDGVIARDGRLLAGDQILQVNNYNISNVSHNYARAVLSQPCNTLHLTVLRERRFGNRAHNHSDSNSPREEIFQVALHKRDSGEQLGIKLVRRTDEPGVFILDLLEGGLAAQDGRLSSNDRVLAINGHDLKYGTPELAAQIIQASGERVNLTIARPGKPQPGNTIREAGNHSSSSQHHTPPPYYSRPSSHKDLTQCVTCQEKHITVKKEPHESLGMTVAGGRGSKSGELPIFVTSVPPHGCLARDGRIKRGDVLLNINGIDLTNLSHSEAVAMLKASAASPAVALKALEVQIVEEATQNAEEQPSTFSENEYDASWSPSWVMWLGLPSTLHSCHDIVLRRSYLGSWGFSIVGGYEENHTNQPFFIKTIVLGTPAYYDGRLKCGDMIVAVNGLSTVGMSHSALVPMLKEQRNKVTLTVICWPGSLV

In the first test the parent is B1. The following applies: with card9_human CARD9, Q9H257.
With R335P, the “effect of a mutation on the interaction” value is listed as “with no effect”.

The variants in another test derive from B2. The following applies: with pex19_human PEX19, P40855.
With Q82R, the “effect of a mutation on the interaction” value is “with no effect”.
The same measure, in the same setting: for D347Y the value was “with no effect”.

The next test covers variants of B3. The following applies: with rbtn2_human LMO2, P25791.
Chain of rbtn2_human LMO2, P25791 (P25791 whole entry): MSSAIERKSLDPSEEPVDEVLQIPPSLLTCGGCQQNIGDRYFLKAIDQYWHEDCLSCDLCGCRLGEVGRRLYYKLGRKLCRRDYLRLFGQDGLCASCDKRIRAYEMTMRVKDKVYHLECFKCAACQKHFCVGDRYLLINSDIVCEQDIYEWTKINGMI
For D118G, the “effect of a mutation on the interaction” value is “with no effect”.
Same read-out and setting: under N464K stands “disrupting interaction strength”.

In a further test the parent is B3. The following applies: with fhl3_human FHL3, Q13643.
Chain of fhl3_human FHL3, Q13643 (Q13643 whole entry): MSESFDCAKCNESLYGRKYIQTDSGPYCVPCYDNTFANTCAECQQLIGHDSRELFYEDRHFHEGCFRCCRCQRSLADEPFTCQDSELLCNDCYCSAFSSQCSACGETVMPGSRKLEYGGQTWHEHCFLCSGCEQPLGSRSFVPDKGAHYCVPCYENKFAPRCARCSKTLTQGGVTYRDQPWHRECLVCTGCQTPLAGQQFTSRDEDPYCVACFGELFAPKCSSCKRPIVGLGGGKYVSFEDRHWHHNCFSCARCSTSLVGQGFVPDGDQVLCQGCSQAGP
Turning to D118G, the “effect of a mutation on the interaction” value is “with no effect”.
On the same count and under the same terms, under N464K stands “with no effect”.

Variants of B4 are the subject of a further test. The following applies: with arl2_human ARL2, P36404.
Chain of arl2_human ARL2, P36404 (P36404 whole entry): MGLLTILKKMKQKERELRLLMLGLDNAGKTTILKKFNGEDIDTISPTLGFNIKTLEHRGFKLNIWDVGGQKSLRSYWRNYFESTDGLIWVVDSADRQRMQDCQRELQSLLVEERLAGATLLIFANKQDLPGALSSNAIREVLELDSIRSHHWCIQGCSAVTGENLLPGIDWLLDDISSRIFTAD
M45R: the “effect of a mutation on the interaction” value was “disrupting interaction strength”.
The same measure, in the same setting: for E87K the value was “disrupting interaction strength”.

A further test covers variants of B5. The following applies: with arg39_human ARHGEF39, Q8N4T4.
V248A: the “effect of a mutation on the interaction” value is given as “with no effect”.

In a further test the parent is B6. The following applies: with lrc8e_human LRRC8E.
With S198P, the “effect of a mutation on the interaction” value is on record as “with no effect”.

In another test the parent is B6. The following applies: with atpb_human ATP5F1B.
With S198P, the “effect of a mutation on the interaction” value is listed as “with no effect”.

In the next test the parent is B6. The following applies: with ptcd3_human PTCD3, Q96EY7.
For the variant S198P, the “effect of a mutation on the interaction” value was “with no effect”.
